From the supplement of paper PMC7125110
± gives the standard error. This sample holds only a part of the variants without activity.

B1: glmS ribozyme (parent)
chain: AUAAAAGCGCCAGAACUACAGAAAUGUAGUUGACGAGGAGGAGGUUUAUCGAAUUUUCGGCGGAUGCCUCCAAA

Legend:
Settings in all cases: with glucosamine-6-phosphate
glucosamine-6-phosphate [1] = variants of: B1; experiment: self-cleavage kobs at 40 uM GlcN6P; higher = faster cleavage; RNA array
Method in brief: (§1)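 In situ transcription by E. coli RNA polymerase produced barcoded ribozyme variants on sequenced MiSeq chips, and a hybridised Cy3 probe tracked them at 37 °C. Glucosamine-6-phosphate was flowed in at 40 μM to 10 mM in HEPES/KCl/Mg(OAc)2 buffer. kcat and KM were taken from weighted Michaelis–Menten fits of kobs values from exponential decay fits.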

glucosamine-6-phosphate [2] = variants of: B1; experiment: self-cleavage kobs at 640 uM GlcN6P; higher = faster cleavage; RNA array
Method in brief: as §1

glucosamine-6-phosphate [3] = variants of: B1; experiment: self-cleavage kobs at 160 uM GlcN6P; higher = faster cleavage; RNA array
Method in brief: as §1

glucosamine-6-phosphate [4] = variants of: B1; experiment: self-cleavage kobs at 2500 uM GlcN6P; higher = faster cleavage; RNA array
Method in brief: as §1

glucosamine-6-phosphate [5] = variants of: B1; experiment: self-cleavage kobs at 10000 uM GlcN6P; higher = faster cleavage; RNA array
Method in brief: as §1

Variant	self-cleavage kobs at 40 uM GlcN6P (glucosamine-6-phosphate [1])	self-cleavage kobs at 640 uM GlcN6P (glucosamine-6-phosphate [2])	self-cleavage kobs at 160 uM GlcN6P (glucosamine-6-phosphate [3])	self-cleavage kobs at 2500 uM GlcN6P (glucosamine-6-phosphate [4])	self-cleavage kobs at 10000 uM GlcN6P (glucosamine-6-phosphate [5])
G51A G60C	< 1e-05 s⁻¹	< 1e-05 s⁻¹			
A48C G59U C67A	< 1e-05 s⁻¹				
U45G C50U A64G	< 1e-05 s⁻¹	< 1e-05 s⁻¹			
A42G U69A	0.000758 ± 0.00012 s⁻¹	0.00094 ± 0.00029 s⁻¹	0.000231 ± 0.00011 s⁻¹	0.000947 ± 0.0003 s⁻¹	
G44U A48G	< 1e-05 s⁻¹	< 1e-05 s⁻¹	< 1e-05 s⁻¹	< 1e-05 s⁻¹	< 1e-05 s⁻¹
A48C G51A	< 1e-05 s⁻¹	< 1e-05 s⁻¹	< 1e-05 s⁻¹	< 1e-05 s⁻¹	< 1e-05 s⁻¹
G51A C61G	< 1e-05 s⁻¹		< 1e-05 s⁻¹		
G43U G66C	< 1e-05 s⁻¹		< 1e-05 s⁻¹	< 1e-05 s⁻¹	
G41C C68G	< 1e-05 s⁻¹	< 1e-05 s⁻¹	< 1e-05 s⁻¹	< 1e-05 s⁻¹	< 1e-05 s⁻¹
U46A A48C	< 1e-05 s⁻¹				
G40U G51A U54A A64U	< 1e-05 s⁻¹				
G40A G41C A48C C68A C70U	< 1e-05 s⁻¹				< 1e-05 s⁻¹
A42G U55A G63C	< 1e-05 s⁻¹			< 1e-05 s⁻¹	
U46A G60C	< 1e-05 s⁻¹	< 1e-05 s⁻¹	< 1e-05 s⁻¹	< 1e-05 s⁻¹	< 1e-05 s⁻¹
A39C G40C U47A U56G	< 1e-05 s⁻¹				
A42G C71A	0.000338 ± 7.5e-05 s⁻¹	0.00207 ± 0.00033 s⁻¹	0.000606 ± 0.00021 s⁻¹	0.00316 ± 0.0013 s⁻¹	0.0105 ± 0.003 s⁻¹
U49A U57G	< 1e-05 s⁻¹	< 1e-05 s⁻¹			
C50G U65A	6.61e-05 ± 1.9e-05 s⁻¹	0.00136 ± 0.00038 s⁻¹	6.9e-05 ± 3e-05 s⁻¹	0.000972 ± 0.00037 s⁻¹	
A48U G59A G66U	< 1e-05 s⁻¹	< 1e-05 s⁻¹	< 1e-05 s⁻¹		< 1e-05 s⁻¹
A48G G60C C61G	< 1e-05 s⁻¹				
G41U C50A	< 1e-05 s⁻¹	< 1e-05 s⁻¹	< 1e-05 s⁻¹	< 1e-05 s⁻¹	< 1e-05 s⁻¹
A42C U54A	< 1e-05 s⁻¹	< 1e-05 s⁻¹	< 1e-05 s⁻¹	< 1e-05 s⁻¹	

Variant	self-cleavage kobs at 40 uM GlcN6P (glucosamine-6-phosphate [1])	self-cleavage kobs at 640 uM GlcN6P (glucosamine-6-phosphate [2])	self-cleavage kobs at 160 uM GlcN6P (glucosamine-6-phosphate [3])	self-cleavage kobs at 2500 uM GlcN6P (glucosamine-6-phosphate [4])	self-cleavage kobs at 10000 uM GlcN6P (glucosamine-6-phosphate [5])
U46G A48U C68U	< 1e-05 s⁻¹				
C50G G66U C67A	0.000105 ± 1.9e-05 s⁻¹			4.67e-05 ± 1.7e-05 s⁻¹	0.000166 ± 2.7e-05 s⁻¹
G43A C61A	< 1e-05 s⁻¹	< 1e-05 s⁻¹	< 1e-05 s⁻¹		
A42U C61U	< 1e-05 s⁻¹	< 1e-05 s⁻¹	< 1e-05 s⁻¹	< 1e-05 s⁻¹	< 1e-05 s⁻¹
A42U U49G U57A C61G	< 1e-05 s⁻¹	< 1e-05 s⁻¹		< 1e-05 s⁻¹	< 1e-05 s⁻¹
G40C C67A C71A	3.18e-05 ± 1.4e-05 s⁻¹				0.000726 ± 0.00011 s⁻¹
G40U G44U	< 1e-05 s⁻¹	< 1e-05 s⁻¹	< 1e-05 s⁻¹		
G40U C50A G66U	< 1e-05 s⁻¹	< 1e-05 s⁻¹		< 1e-05 s⁻¹	< 1e-05 s⁻¹
A48C G63U	< 1e-05 s⁻¹	< 1e-05 s⁻¹		< 1e-05 s⁻¹	< 1e-05 s⁻¹
A42G A52G U65G	< 1e-05 s⁻¹			8.47e-05 ± 2.8e-05 s⁻¹	0.000346 ± 8.1e-05 s⁻¹
U45G U69A	0.000333 ± 8.4e-05 s⁻¹			0.000589 ± 0.00025 s⁻¹	0.000362 ± 7.9e-05 s⁻¹
G38U U57G C67U C70U	8e-05 ± 2.6e-05 s⁻¹	0.000114 ± 4.7e-05 s⁻¹		0.0013 ± 0.00059 s⁻¹	4.29e-05 ± 1.9e-05 s⁻¹
C50G C68A	7.16e-05 ± 9.2e-06 s⁻¹	0.000137 ± 2.4e-05 s⁻¹	0.000228 ± 3.1e-05 s⁻¹	0.000116 ± 2.1e-05 s⁻¹	7.83e-05 ± 8.2e-06 s⁻¹
A39G C71A	0.000536 ± 7.8e-05 s⁻¹	0.00173 ± 0.00045 s⁻¹	0.000645 ± 9.8e-05 s⁻¹	0.00277 ± 0.00061 s⁻¹	0.00612 ± 0.0011 s⁻¹
U45C C58A	< 1e-05 s⁻¹		< 1e-05 s⁻¹		
G43A C67G C68G	5.46e-05 ± 1.7e-05 s⁻¹	0.000155 ± 4.7e-05 s⁻¹		6.83e-05 ± 1.7e-05 s⁻¹	7.38e-05 ± 1.4e-05 s⁻¹
U45G G62A C70G C71G	< 1e-05 s⁻¹				
A42C G59C C67G	< 1e-05 s⁻¹			< 1e-05 s⁻¹	< 1e-05 s⁻¹
A48U C50U C58A	< 1e-05 s⁻¹	< 1e-05 s⁻¹	< 1e-05 s⁻¹		
A48C C50U	< 1e-05 s⁻¹	< 1e-05 s⁻¹	< 1e-05 s⁻¹	< 1e-05 s⁻¹	< 1e-05 s⁻¹
G40A C61A	< 1e-05 s⁻¹	< 1e-05 s⁻¹	< 1e-05 s⁻¹		
U49G U57A	< 1e-05 s⁻¹	< 1e-05 s⁻¹			

Variant	self-cleavage kobs at 40 uM GlcN6P (glucosamine-6-phosphate [1])	self-cleavage kobs at 640 uM GlcN6P (glucosamine-6-phosphate [2])	self-cleavage kobs at 160 uM GlcN6P (glucosamine-6-phosphate [3])	self-cleavage kobs at 2500 uM GlcN6P (glucosamine-6-phosphate [4])	self-cleavage kobs at 10000 uM GlcN6P (glucosamine-6-phosphate [5])
A42U A48G	< 1e-05 s⁻¹	< 1e-05 s⁻¹	< 1e-05 s⁻¹		
U45G C61G	< 1e-05 s⁻¹	< 1e-05 s⁻¹	< 1e-05 s⁻¹	< 1e-05 s⁻¹	< 1e-05 s⁻¹
A48U A52U C67A	< 1e-05 s⁻¹				< 1e-05 s⁻¹
U45A C70G	0.000107 ± 4.1e-05 s⁻¹	0.000198 ± 7.9e-05 s⁻¹	0.000105 ± 3.6e-05 s⁻¹	0.00053 ± 0.00019 s⁻¹	0.000826 ± 0.00032 s⁻¹
U47C A53G	0.000125 ± 2.2e-05 s⁻¹	0.00114 ± 0.00018 s⁻¹	0.000176 ± 5.7e-05 s⁻¹	0.00477 ± 0.0011 s⁻¹	0.00419 ± 0.00092 s⁻¹
A42C U55A U57C	< 1e-05 s⁻¹				
G40A U54A	0.000696 ± 0.00017 s⁻¹	0.000502 ± 0.00015 s⁻¹		0.00212 ± 0.00077 s⁻¹	
U49C A52U	< 1e-05 s⁻¹	< 1e-05 s⁻¹	< 1e-05 s⁻¹	< 1e-05 s⁻¹	< 1e-05 s⁻¹
G41A C50A C67G	< 1e-05 s⁻¹				< 1e-05 s⁻¹
A42G U56G	0.000474 ± 5.8e-05 s⁻¹	0.00411 ± 0.00062 s⁻¹	0.00171 ± 0.00035 s⁻¹	0.0067 ± 0.0013 s⁻¹	0.0334 ± 0.0059 s⁻¹
G40U G62C	< 1e-05 s⁻¹	< 1e-05 s⁻¹	< 1e-05 s⁻¹		< 1e-05 s⁻¹
G43U A48G U65A G66U C70A	< 1e-05 s⁻¹				
U46G G51C C67G	< 1e-05 s⁻¹				
A42C G63A	< 1e-05 s⁻¹	< 1e-05 s⁻¹	< 1e-05 s⁻¹		< 1e-05 s⁻¹
U46G U54C	0.00019 ± 3.4e-05 s⁻¹				0.00687 ± 0.0018 s⁻¹
A42G G63U	< 1e-05 s⁻¹	< 1e-05 s⁻¹	< 1e-05 s⁻¹	< 1e-05 s⁻¹	
A42U G63A	< 1e-05 s⁻¹	< 1e-05 s⁻¹			< 1e-05 s⁻¹
C50G U56G C61A	8.29e-05 ± 2e-05 s⁻¹	0.000426 ± 0.00014 s⁻¹		0.00021 ± 4.8e-05 s⁻¹	6.89e-05 ± 1.6e-05 s⁻¹
U47G G51A	< 1e-05 s⁻¹				
G43A G51U G63C A64G	< 1e-05 s⁻¹	< 1e-05 s⁻¹		< 1e-05 s⁻¹	
G41U A42U C70A	0.000142 ± 2.3e-05 s⁻¹				0.00204 ± 0.00044 s⁻¹
G41A A64C	< 1e-05 s⁻¹	< 1e-05 s⁻¹	< 1e-05 s⁻¹	< 1e-05 s⁻¹	< 1e-05 s⁻¹

Variant	self-cleavage kobs at 40 uM GlcN6P (glucosamine-6-phosphate [1])	self-cleavage kobs at 640 uM GlcN6P (glucosamine-6-phosphate [2])	self-cleavage kobs at 160 uM GlcN6P (glucosamine-6-phosphate [3])	self-cleavage kobs at 2500 uM GlcN6P (glucosamine-6-phosphate [4])	self-cleavage kobs at 10000 uM GlcN6P (glucosamine-6-phosphate [5])
C50G G62U C68G	0.000123 ± 3.2e-05 s⁻¹				9.97e-05 ± 2.5e-05 s⁻¹
G40A G41C G43U	< 1e-05 s⁻¹				
G41A G63A	< 1e-05 s⁻¹	< 1e-05 s⁻¹			< 1e-05 s⁻¹
G41A U69A	< 1e-05 s⁻¹	< 1e-05 s⁻¹			
G51A G63U	< 1e-05 s⁻¹				< 1e-05 s⁻¹
A48G U49C	< 1e-05 s⁻¹	< 1e-05 s⁻¹	< 1e-05 s⁻¹	< 1e-05 s⁻¹	< 1e-05 s⁻¹
G43C U69C	< 1e-05 s⁻¹		< 1e-05 s⁻¹		
G43C A48U G51C G63A C71U	< 1e-05 s⁻¹				< 1e-05 s⁻¹
C50G C58A C70U	9.84e-05 ± 1.6e-05 s⁻¹			0.000176 ± 4e-05 s⁻¹	0.000117 ± 2.1e-05 s⁻¹
G41C G43A C50G C67A U69C	< 1e-05 s⁻¹				
C50U G51A	< 1e-05 s⁻¹	< 1e-05 s⁻¹		< 1e-05 s⁻¹	< 1e-05 s⁻¹
C50U A64U	< 1e-05 s⁻¹		< 1e-05 s⁻¹		< 1e-05 s⁻¹
C50G A52C U69A	8.7e-05 ± 2.7e-05 s⁻¹				4.8e-05 ± 1.6e-05 s⁻¹
G41A G44A	< 1e-05 s⁻¹		< 1e-05 s⁻¹	< 1e-05 s⁻¹	< 1e-05 s⁻¹
G43C U46C	< 1e-05 s⁻¹	< 1e-05 s⁻¹	< 1e-05 s⁻¹	< 1e-05 s⁻¹	
G43C U46G	< 1e-05 s⁻¹	< 1e-05 s⁻¹	< 1e-05 s⁻¹	< 1e-05 s⁻¹	
G41A U46G G51U	< 1e-05 s⁻¹				
G40A U69A	< 1e-05 s⁻¹	< 1e-05 s⁻¹		< 1e-05 s⁻¹	< 1e-05 s⁻¹
A39U G59C	< 1e-05 s⁻¹	< 1e-05 s⁻¹	< 1e-05 s⁻¹	< 1e-05 s⁻¹	< 1e-05 s⁻¹
U45A G59U C70G	< 1e-05 s⁻¹				< 1e-05 s⁻¹
U46C A48G C50A C71G	< 1e-05 s⁻¹				
